Measurements as given in PMC5640506 (2017).

Assays:
K11-linked diUb [1] = target: T1, K11-linked diUb (UniProt P0CG47 1-76, K11-linked: one Ub is ubiquitinated on the side chain of K11); experiment: ITC
K48 diUb = K48 diUb (Homo sapiens); experiment: MST
K6-linked diUb = K6-linked diUb (UniProt P0CG47 1-76, K6-linked: one Ub is ubiquitinated on the side chain of K6); experiment: MST
K29 diUb = K29 diUb (Homo sapiens); experiment: MST
K63 diUb = K63 diUb (Homo sapiens); experiment: MST
K33-linked diUb = K33-linked diUb (UniProt P0CG47 1-76, K33-linked: one Ub is ubiquitinated on the side chain of K33); experiment: MST
K11-linked diUb [2] = target: T1, K11-linked diUb; experiment: MST

| Kd (K11-linked diUb [1]) [µM] | Kd (K48 diUb) [µM] | Kd (K6-linked diUb) [µM] | Kd (K29 diUb) [µM] | Kd (K63 diUb) [µM] | Kd (K33-linked diUb) [µM] | Kd (K11-linked diUb [2]) [µM] | Binder |
| --- | --- | --- | --- | --- | --- | --- | --- |
| 0.007 | – | – | – | – | – | – | K33 affimer (designed binder) MSAATGVRAVPGNENSLEIEELARFAVDEHNKKENALLEFVRVVKAKEQIWEMDASKETMYYLTLEAKDGGKKKLYEAKVWVKMTHWIGAMNNFKELQEFKPVGDAAAAHHHHHHG |
| – | 120 | 210 | 61 | 83 | – | – | dimerized K33/K11 affimer, fluorescently labelled (designed binder, Alexa488-maleimide or NT-647-maleimide on a single cysteine) ENSLEIEELARFAVDEHNKKENALLEFVRVVKAKEQIWEMDASKETMYYLTLEAKDGGKKKLYEAKVWVKMTHWIGAMNNFKELQEFKPVENSLEIEELARFAVDEHNKKENALLEFVRVVKAKEQIWEMDASKETMYYLTLEAKDGGKKKLYEAKVWVKMTHWIGAMNNFKELQEFKPV |
| – | 82 | – | 55 | 130 | 120 | 49 | dimerized K6 affimer, fluorescently labelled (designed binder, Alexa488-maleimide or NT-647-maleimide on a single cysteine) ENSLEIEELARFAVDEHNKKENALLEFVRVVKAKEQSWKDDELFDTMYYLTLEAKDGGKKKLYEAKVWVKASGIVMYQMNFKELQEFKPVENSLEIEELARFAVDEHNKKENALLEFVRVVKAKEQSWKDDELFDTMYYLTLEAKDGGKKKLYEAKVWVKASGIVMYQMNFKELQEFKPV |
